Measurements published in US20050085426A1, “Acid-sensitive compounds, preparation and use thereof” (priority 2000, published 2005).

Columns and labels:
[1] = system: control cationic lipid/DNA nucleolipid particles; experiment: Size of nucleolipid particles as a function of time at pH 5; format: physicochemical; settings: for aggregation of the particles after 4 hours: pH 5, 37° C.
Procedure: The acid-sensitive pegoylated lipid used in this example is the compound D prepared in example 5, as well as its non-acid-sensitive analog called “Analog D” in the preceding example and in the text which follows.
(§1) All these samples have a control cationic lipid/DNA ratio of 1.5 (in nmol of lipid per μg of DNA) and contain increasing quantities of pegoylated lipid (expressed as polymer/DNA weight/weight ratio).
The size of the particles is measured as a function of time.

[2] = system: Balb/C mice carrying subcutaneous M109 tumors; experiment: In vivo gene transfer of DNA/cationic lipid/DOPE complexes, CAT assay
Procedure: The cationic lipid of formula: [drawing 28] and the neutral lipid DOPE (obtained from Avanti Polar Lipids, Birmingham, Ala.) where it is dissolved in chloroform and then mixed in equimolar quantities.
Appropriate quantities of compound D were dissolved in chloroform and added to the mixture. The quantities of compound D used are given in mol % of the total quantity of lipid.
The organic solvent is then evaporated under an argon stream so that a thin lipid film forms at the bottom of the tube. This film is dried under vacuum for at least 1 hour and then rehydrated with a 20 mM HEPES buffer at pH 7.4 and 5% dextrose, at 4° C. for 2 hours. The lipid suspension thus obtained is heated at 50° C. for 30 minutes, and then sonicated for 5 minutes so as to form a homogeneous suspension of liposomes of about 100 nm.
The DNA used is plasmid DNA containing the CAT gene under the control of a CMV promoter.
Equivalent volumes of liposome suspension (in appropriate concentration) are rapidly added to a DNA solution while mixing rapidly and vigorously. Overall, 1 μg of DNA forms a complex with 5 nmol of cationic lipid. The complexes formed have a diameter of approximately 100 to 240 nm.
About 6 week old female Balb/C mice are used in all the experiments. Each mouse receives a subcutaneous injection with 10^6 M109 cells in the right flank. When the tumours reach a size of about 300 mm^3, the mice receive 200 μl of DNA/lipid complexes containing 50 μg of DNA, by intravenous injection. The tissues are removed 24 hours after injection and stored at −70° C. until used.
The tissues are homogenized using a “FastPrep Cell Disrupter FP120” apparatus (Bio 101/Savant). The samples are then centrifuged at 1 000 revolutions/minute for 5 minutes. The quantity of CAT transgene expressed is determined using a standard CAT ELISA procedure (Roche, Ind.).

[3] = system: control cationic lipid/DNA particles; experiment: Colloidal stabilization of DNA/control cationic lipid particles, hydrodynamic diameter; format: physicochemical; settings: as nonionic surfactant for nucleolipid particles
Excerpt: In the present example, the cationic lipid used is that already used in examples 7 and 8 and described in the publication WO 97/18185 under the formula: H2N—(CH2)3—NH—(CH2)4—NH—(CH2)3—NH—CH2—CO-Gly-N[(CH2)17—CH3]2 (control cationic lipid).
Compounds C and D prepared in example 5 are used as acid-sensitive pegoylated lipids. As controls, there are used BRIJ 700 (SIGMA) and the pegoylated lipid of formula: [drawing 27] which are non-acid-sensitive analogs of compounds C and D, respectively, and which are known as nonionic surfactants (see for example the publication WO 98/34648). The two controls are used at 10 g/l in water.
as §1
The measurement of the hydrodynamic diameter is made with a Coulter N4Plus apparatus using plastic cuvettes (four transparent sides) filled with 800 μl of the different solutions containing 0.01 mg of DNA/ml, the measurement being carried out at 90° in unimodal mode.

[4] = system: HeLa cells; experiment: In vitro transfection of HeLa cells, luciferase activity; format: cell-based, human; settings: for transfection activity: 1.0 to 10.0 nmol of lipid/μg of DNA; for effect of the presence of serum on transfection: with serum (10% FCS)
Procedure: This study was carried out at 4 different charge ratios: 1.0 or 4.0 or 6.0 or 10.0 nmol of lipid/μg of DNA. Each of these conditions was tested with and without fetal calf serum (“+ or − Serum”)
Culture of the cells: HeLa cells (American type Culture Collection (ATCC) Rockville, Md., USA) derived from a human cervical epithelium carcinoma, are cultured in the presence of a medium of the MEM (“minimum essential medium”) type with addition of 2 mM L-glutamine, 50 units/ml of penicillin, and 50 units/ml of streptomycin. The medium and the additives are obtained from Gibco/BRL life Technologies (Gaithersburg, Md., USA). The cells are cultured in flasks at 37° C. and at 5% carbon dioxide in an incubator.
Transfection: a day before the transfection, the HeLa cells are transferred into 24-well plates with a cell number of 30,000 to 50,000 per well. These dilutions represent approximately 80% confluence after 24 hours.
For the transfection, the cells are washed twice and incubated at 37° C. with 500 μl of medium with serum (10% FCS v/v) or without serum.
50 μl of complexes containing 0.5 μg of plasmid DNA are added to each well (the complexes are prepared at least 30 minutes before the addition to the well). After two hours at 37° C., the plates without serum are supplemented with 10% (v/v) of FCS (“Fetal Calf Serum”).
All the plates are placed for 36 hours at 37° C. and at 5% carbon dioxide.
Determination of the luciferase activity: Briefly, the transfected cells are washed twice with 500 μl of PBS (phosphate buffer) and then lysed with 250 μl of reagent (Promega cell culture lysis reagent, from the Luciferase Assay System kit).
An aliquot of 10 μl of supernatant of the lysate centrifuged (12,000×g) for 5 minutes at 4° C. is measured with the Wallac Victor2 luminometer (1420 Multilabel couter).
The luciferase activity is assayed by the emission of light in the presence of luciferin, of coenzyme A and of ATP for 10 seconds and expressed relative to 2000 treated cells. The luciferase activity is thus expressed as Relative Light Unit (“RLU”: “Relative light unit”) and normalized with the concentration of proteins in the sample obtained using a Pierce BCA kit (Rockford, Ill., USA).

[5] = system: DNA; experiment: Ethidium bromide fluorescence test of DNA compaction and release at pH 5; format: physicochemical; settings: for variation in fluorescence over time (DNA not completely compacted): 0.4 nmol lipid/μg of DNA
Excerpt: This can be easily shown by a fluorescence test with ethidium bromide (EtBr): the absence of fluorescence reflects the absence of free DNA, which means that the DNA is compacted.
In the text which follows, the two forms Syn and Trans of the acid-sensitive compound A as prepared in example 3 were used and the non-acid-sensitive analog described in the publication WO 97/18185, and which has the formula: H2N—(CH2)3—NH—(CH2)4—NH—(CH2)3—NH—CH2—CO-Gly-N[(CH2)17—CH3]2 was used as control. This non-acid-sensitive analog is called in the text which follows “control cationic lipid”.
The DNA is brought into contact with increasing quantities of control cationic lipid or of acid-sensitive compound A Syn or Trans, by mixing an equal volume of lipid solutions of different titers with the DNA solutions. Samples of 800 μl of DNA complexes having a concentration of 10 μg/ml are thus prepared in a sodium chloride solution at 150 mM with increasing quantities of control cationic lipid or of acid-sensitive compound A Syn or Trans.
At time t=0, 200 μl of buffer having a concentration of 0.1 mol/l at pH 5 are added to these samples and the samples are stored in an oven at 37° C. The fluorescence with ethidium bromide (EtBr) is measured over time (measurement at 20° C.) using a FluoroMax-2 (Jobin Yvon-Spex), with excitation and emission wavelengths of 260 nm and 590 nm respectively. The slit widths for excitation and for emission are set at 5 nm. The fluorescence value is recorded after addition of 3 μl of ethidium bromide at 1 g/l per ml of DNA/cationic lipid or DNA/acid-sensitive compound solution (at 0.01 mg of DNA/ml).

[6] = system: DNA/control cationic lipid nucleolipid complexes; experiment: Size of nucleolipid particles as a function of pH and time (stability of acid-sensitive compounds); format: physicochemical; settings: for sensitivity at acidic pH values: pH 4, pH 5, pH 6; for stability at physiological pH: pH 7.4
Procedure: To this effect, the variation of the size of nucleolipid complexes (identical to those used in examples 9 and 10) is measured as a function of the pH and time, for various acid-sensitive pegoylated lipids, which makes it possible to cover different ranges of sensitivity.

“methoxy-(polyethylene glycol 5000)-N-{2-[17-(1,5-dimethylhexyl)-10,13-dimethyl-2,3,4,7,8,9,10,11,12,13,14,15,16,17-tetradecahydro-1H-cyclopenta[a]-phenanthren-3-yloxy]-[1,3]dioxolan-4-ylmethyl}amide [Compound D]” was tested, and the “aggregation of the particles after 4 hours” value ([1]; pegoylated lipid/DNA ratio of 0.5) was “completely formed into aggregates”, the “aggregation of the particles after 4 hours” value ([1]; pegoylated lipid/DNA ratio of 1) was “not at all or only slightly” and the “colloidal stability of the particles at time t=0” value ([1]; pH 5, t=0, regardless of the compound/DNA ratio) was “the same stability”. For the same compound, the “increase of the gene transfer activity specific to the tumors relative to the lungs (factor)” value ([2]; M109 tumors versus lungs) was 40, the “gene transfer in the tumors” value ([2]; M109 tumors, intravenous injection, 50 μg of DNA, 24 hours after injection, increasing quantity of pegoylated lipid) was “gene transfer does not appear to be affected in the tumors” and the “transfection activity in the lungs” value ([2]; intravenous injection, 50 μg of DNA, tissues 24 hours after injection, increasing quantity of pegoylated lipid) was “the transfection activity is also inhibited in the lungs”. For the same compound, the colloidal stabilizing power [3] was “comparable to that of the stable nonionic surfactants”.
In the case of `CCCCCCCCCCCCCCCCCCN(CCCCCCCCCCCCCCCCCC)C(=O)CNC(=O)CNCCCNCCCCNCCCN` [control cationic lipid, H2N—(CH2)3—NH—(CH2)4—NH—(CH2)3—NH—CH2—CO-Gly-N[(CH2)17—CH3]2, reference compound], the transfection activity [4] is reported as “high transfection activity”, the “effect of the presence of serum on transfection” value [4] is reported as “inhibition of transfection” and the “variation in fluorescence over time (DNA not completely compacted)” value ([5]; pH 5, 37° C.) is reported as “no significant variation in fluorescence”.
With “methoxy-(polyethylene glycol 5000)-N-(2-methyl-2-octadecyloxy-[1,3]dioxan-5-yl)amide [Compound E]” the “sensitivity at acidic pH values” [6] was “high sensitivity at acidic pH values”, the “start of aggregation of the nucleolipid particles after the acidification” value ([6]; pH 6, 37° C.) was “about 1 hour” and the “stability at physiological pH” value [6] was “relatively stable at physiological pH”.
With `CCCCCCCCCCCCCCCCCCN(CCCCCCCCCCCCCCCCCC)C(=O)CCCOC1OCC(CNC(=O)CNCCCNCCCCNCCCN)O1` (stereo not drawn) [Compound A Syn, 4-{4-[(2-{3-[4-(3-amino-propylamino)butylamino]propyl-amino}acetylamino)methyl]-[1,3]dioxolan-2-yloxy}-N,N-dioctadecylbutyramide tetraacetate] the transfection activity [4] was “high transfection activity”, the “effect of the presence of serum on transfection” value [4] was “inhibition of transfection” and the “variation in fluorescence over time (DNA not completely compacted)” value ([5]; pH 5, 37° C.) was “no significant variation in fluorescence”. For the same compound, the “release of the DNA over time (increase in fluorescence)” value ([5]; pH 5, 37° C., 1.7 and 6.0 nmol lipid/μg of DNA) was “release the DNA over time” and the “time of release of DNA after the addition of acid” value ([5]; pH 5 and 37° C.) was “a few hours after the addition of acid”.
In the case of “methoxy-(polyethylene glycol 5000)-(N-(2-octadecyloxy-[1,3]dioxolan-4-ylmethyl)amide [Compound C]”, the “sensitivity at acidic pH values” [6] is reported as “high sensitivity at acidic pH values”, the “duration of stabilization of the nucleolipid particles” value ([6]; pH 6, 37° C.) is reported as “at least 4 hours” and the “stability at physiological pH” value [6] is reported as “relatively stable at physiological pH”. The colloidal stabilizing power [3] was “comparable to that of the stable nonionic surfactants”.
